The values below come from patent US20250011363A1, “OPTIMIZED SHORTENED PEPTIDE THAT BINDS TO ACETYLCHOLINE RECEPTOR, AND USE THEREOF” (SKINMED CO., LTD., priority 2021, published 2025).

Assay [1] addresses acetylcholine receptor. Description: SPR, receptor immobilised on chip, peptide at 10 µM. (Surface plasmon resonance follows binding to a sensor surface in real time, without labels.)
Assay [2] deals with acetylcholine receptor. Description: SPR, acetylcholine receptor on CM5 chip, peptide at 10 uM.

B1: 6mer-2-513 (peptide)
peptide: RRLTRK
With B1, the Binding affinity in the assay with acetylcholine receptor [1] was found to be 121 RU.

B2: 6mer-2-495 (peptide)
peptide: KLLCKK
In turn, B2 gave a Binding affinity with acetylcholine receptor [1] of 121 RU.

B3: 6mer-2-505 (peptide)
peptide: KRQCKK
B3 returned a Binding affinity in the assay with acetylcholine receptor [1] of 148 RU.

B4: 6mer-2-514 (peptide)
peptide: KGLQKK
With B4, in the assay with acetylcholine receptor [1], the Binding affinity worked out at 124 RU.

B5: 6mer-1-540 (peptide)
peptide: KRVQTR
For B5, in the assay with acetylcholine receptor [2], the Binding affinity (RU) was found to be 128 RU.

B6: 6mer-2-511 (peptide)
peptide: RVFCRR
B6 registered a Binding affinity with acetylcholine receptor [1] of 126 RU.

B7: 6mer-1-541 (peptide)
peptide: RKWFTR
With B7, in the assay with acetylcholine receptor [2], the Binding affinity (RU) worked out at 136 RU.

B8: 6mer-2-530 (peptide)
peptide: RSYSKR
In the assay with acetylcholine receptor [1], B8 gave a Binding affinity of 139 RU.

B9: 6mer-2-500 (peptide)
peptide: KRICRR
Molecule B9 had a Binding affinity in the assay with acetylcholine receptor [1] of 146 RU.

B10: 6mer-2-501 (peptide)
peptide: KSYSKK
As for B10, the Binding affinity with acetylcholine receptor [1] was 144 RU.

B11: 6mer-2-506 (peptide)
peptide: KSLLKK
On to B11, for which the Binding affinity in the assay with acetylcholine receptor [1] amounted to 135 RU.

B12: 6mer-2-512 (peptide)
peptide: RWFTRR
On to B12, for which the Binding affinity in the assay with acetylcholine receptor [1] came to 148 RU.

B13: 6mer-2-518 (peptide)
peptide: KLVTKK
In the assay with acetylcholine receptor [1], B13 came in with a Binding affinity of 151 RU.

B14: 6mer-2-515 (peptide)
peptide: RWYCRK
Molecule B14 displayed a Binding affinity with acetylcholine receptor [1] of 123 RU.

B15: 6mer-2-532 (peptide)
peptide: KSITKR
On to B15, for which the Binding affinity with acetylcholine receptor [1] was found to be 147 RU.

B16: 6mer-2-520 (peptide)
peptide: KSYCKR
As to B16, in the assay with acetylcholine receptor [1], the Binding affinity was 144 RU.

B17: 6mer-1-537 (peptide)
peptide: RRGLCK
Take B17: the Binding affinity (RU) in the assay with acetylcholine receptor [2] stood at 154 RU.

B18: 6mer-2-509 (peptide)
peptide: RGFYRK
Take B18: the Binding affinity in the assay with acetylcholine receptor [1] came out at 136 RU.

B19: 6mer-2-531 (peptide)
peptide: KVIYKR
Consider B19, for which, in the assay with acetylcholine receptor [1], the Binding affinity amounted to 148 RU.

B20: 6mer-1-538 (peptide)
peptide: RRSQCK
On to B20, for which the Binding affinity (RU) in the assay with acetylcholine receptor [2] came out at 142 RU.

B21: 6mer-2-516 (peptide)
peptide: RQQQKK
B21 came in with a Binding affinity with acetylcholine receptor [1] of 146 RU.

B22: 6mer-2-497 (peptide)
peptide: KSYTRR
As to B22, the Binding affinity in the assay with acetylcholine receptor [1] was 148 RU.

B23: 6mer-2-524 (peptide)
peptide: RGIQKR
As to B23, the Binding affinity with acetylcholine receptor [1] turned out to be 128 RU.

B24: 6mer-2-528 (peptide)
peptide: KGFRKK
Turning to B24, the Binding affinity in the assay with acetylcholine receptor [1] came out at 151 RU.

B25: 6mer-2-523 (peptide)
peptide: RGRYKR
In the assay with acetylcholine receptor [1], B25 yielded a Binding affinity of 146 RU.

B26: 6mer-2-529 (peptide)
peptide: KQQRKR
For the molecule B26, the Binding affinity with acetylcholine receptor [1] was found to be 124 RU.

B27: 6mer-2-525 (peptide)
peptide: KWVRKK
In the case of B27, the Binding affinity with acetylcholine receptor [1] is 145 RU.

B28: 6mer-1-539 (peptide)
peptide: KRGIRK
B28 returned a Binding affinity (RU) in the assay with acetylcholine receptor [2] of 148 RU.

B29: 6mer-2-496 (peptide)
peptide: RVRYRK
For the molecule B29, the Binding affinity in the assay with acetylcholine receptor [1] stood at 144 RU.

B30: 6mer-2-517 (peptide)
peptide: KLRTKK
Turning to B30, the Binding affinity with acetylcholine receptor [1] was found to be 153 RU.

B31: 6mer-2-503 (peptide)
peptide: KVQTKK
Regarding B31, in the assay with acetylcholine receptor [1], the Binding affinity worked out at 154 RU.

B32: 6mer-2-493 (peptide)
peptide: KGVRRK
As to B32, the Binding affinity with acetylcholine receptor [1] came out at 123 RU.

B33: 6mer-1-535 (peptide)
peptide: RRVILK
Consider B33, for which the Binding affinity (RU) in the assay with acetylcholine receptor [2] came to 139 RU.

B34: 6mer-2-526 (peptide)
peptide: RVLLRK
Molecule B34 had a Binding affinity with acetylcholine receptor [1] of 144 RU.

B35: 6mer-2-492 (peptide)
peptide: RLIQKK
Consider B35, for which the Binding affinity with acetylcholine receptor [1] was 148 RU.

B36: 6mer-2-502 (peptide)
peptide: KSFCKR
As to B36, the Binding affinity in the assay with acetylcholine receptor [1] stood at 144 RU.

B37: 6mer-2-521 (peptide)
peptide: KQYTRK
As for B37, in the assay with acetylcholine receptor [1], the Binding affinity came to 144 RU.

B38: 6mer-1-542 (peptide)
peptide: KRWFRR
As to B38, the Binding affinity (RU) with acetylcholine receptor [2] came out at 128 RU.

B39: 6mer-2-499 (peptide)
peptide: RLFTKR
For B39, in the assay with acetylcholine receptor [1], the Binding affinity was found to be 145 RU.

B40: 6mer-2-534 (peptide)
peptide: RVQLRR
For B40, the Binding affinity in the assay with acetylcholine receptor [1] stood at 139 RU.

B41: 6mer-2-510 (peptide)
peptide: KRVLKK
In the case of B41, the Binding affinity with acetylcholine receptor [1] was 146 RU.

B42: 6mer-2-522 (peptide)
peptide: RVVLRK
On to B42, for which the Binding affinity in the assay with acetylcholine receptor [1] turned out to be 124 RU.

B43: 6mer-2-507 (peptide)
peptide: RGICKR
B43 gave a Binding affinity with acetylcholine receptor [1] of 145 RU.

B44: 6mer-2-508 (peptide)
peptide: RVFLKK
On to B44, for which the Binding affinity with acetylcholine receptor [1] stood at 121 RU.

B45: 6mer-2-533 (peptide)
peptide: KRLLKR
B45 gave a Binding affinity with acetylcholine receptor [1] of 142 RU.

B46: 6mer-1-543 (peptide)
peptide: RRSVCK
For B46, the Binding affinity (RU) with acetylcholine receptor [2] worked out at 145 RU.

B47: 6mer-2-527 (peptide)
peptide: RGQTRR
In the assay with acetylcholine receptor [1], B47 registered a Binding affinity of 145 RU.

B48: 6mer-2-498 (peptide)
peptide: KGLCRR
The molecule B48 came in with a Binding affinity with acetylcholine receptor [1] of 127 RU.

B49: 6mer-2-504 (peptide)
peptide: RGLTRK
In the assay with acetylcholine receptor [1], B49 yielded a Binding affinity of 154 RU.

B50: 6mer-2-494 (peptide)
peptide: KGLLRR
The molecule B50 came in with a Binding affinity with acetylcholine receptor [1] of 144 RU.

B51: 6mer-2-519 (peptide)
peptide: KQIQRR
On to B51, for which the Binding affinity in the assay with acetylcholine receptor [1] is 135 RU.

B52: 6mer-1-536 (peptide)
peptide: RRWFRK
In turn, B52 returned a Binding affinity (RU) with acetylcholine receptor [2] of 151 RU.
